Laboratory results reported in paper PMC8893600 (Kidney international, 2021).

Target: p65 protein used for surface plasmon resonance (UniProt Q04206 1-551)
Assay: SPR

p65 protein used for surface plasmon resonance, sequence (Q04206 whole entry): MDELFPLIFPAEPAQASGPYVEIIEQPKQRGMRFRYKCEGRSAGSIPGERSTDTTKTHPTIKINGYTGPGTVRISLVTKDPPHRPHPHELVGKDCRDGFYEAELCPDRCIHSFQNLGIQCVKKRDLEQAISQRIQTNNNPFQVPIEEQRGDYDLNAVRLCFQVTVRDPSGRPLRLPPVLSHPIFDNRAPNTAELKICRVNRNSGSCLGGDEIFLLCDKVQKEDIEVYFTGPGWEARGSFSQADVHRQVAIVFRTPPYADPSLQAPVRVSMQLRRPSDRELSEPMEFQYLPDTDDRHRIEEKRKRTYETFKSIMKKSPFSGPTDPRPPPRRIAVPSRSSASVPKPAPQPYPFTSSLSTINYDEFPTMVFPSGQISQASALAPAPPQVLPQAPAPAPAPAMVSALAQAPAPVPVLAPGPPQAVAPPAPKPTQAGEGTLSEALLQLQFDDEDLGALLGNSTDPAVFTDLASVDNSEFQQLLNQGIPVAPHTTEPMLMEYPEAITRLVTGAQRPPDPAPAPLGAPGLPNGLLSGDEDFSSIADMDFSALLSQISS

B1: ANXA1 protein used for surface plasmon resonance (natural protein, UniProt P04083 1-346, looked up)
chain: MAMVSEFLKQAWFIENEEQEYVQTVKSSKGGPGSAVSPYPTFNPSSDVAALHKAIMVKGVDEATIIDILTKRNNAQRQQIKAAYLQETGKPLDETLKKALTGHLEEVVLALLKTPAQFDADELRAAMKGLGTDEDTLIEILASRTNKEIRDINRVYREELKRDLAKDITSDTSGDFRNALLSLAKGDRSEDFGVNEDLADSDARALYEAGERRKGTDVNVFNTILTTRSYPQLRRVFQKYTKYSKHDMNKVLDLELKGDIEKCLTAIVKCATSKPAFFAEKLHQAMKGVGTRHKALIRIMVSRSEIDMNDIKAFYQKMYGISLCQAILDETKGDYEKILVALCGGN
Kd: 13 nM
